B1: HA-tagged RUNX1T1, wild type [human] / FLAG-tagged GFI-1 [not stated] (parent complex)
chain 1: MISVKRNTWRALSLVIGDCRKKGNFEYCQDRTEKHSTMPDSPVDVKTQSRLTPPTMPPPPTTQGAPRTSSFTPTTLTNGTSHSPTALNGAPSPPNGFSNGPSSSSSSSLANQQLPPACGARQLSKLKRFLTTLQQFGNDISPEIGERVRTLVLGLVNSTLTIEEFHSKLQEATNFPLRPFVIPFLKANLPLLQRELLHCARLAKQNPAQYLAQHEQLLLDASTTSPVDSSELLLDVNENGKRRTPDRTKENGFDREPLHSEHPSKRPCTISPGQRYSPNNGLSYQPNGLPHPTPPPPQHYRLDDMAIAHHYRDSYRHPSHRDLRDRNRPMGLHGTRQEEMIDHRLTDREWAEEWKHLDHLLNCIMDMVEKTRRSLTVLRRCQEADREELNYWIRRYSDAEDLKKGGGSSSSHSRQQSPVNPDPVALDAHREFLHRPASGYVPEEIWKKAEEAVNEVKRQAMTELQKAVSEAERKAHDMITTERAKMERTVAEAKRQAAEDALAVINQQEDSSESCWNCGRKASETCSGCNTARYCGSFCQHKDWEKHHHICGQTLQAQQQGDTPAVSSSVTPNSGAGSPMDTPPAATPRSTTPGTPSTIETTPR
chain 2: not shown
B2: HA-tagged RUNX1T1, wild type [human] / FLAG-tagged Sin3A [not stated] (parent complex)
chain 1: B1 chain 1
chain 2: MKRRLDDQESPVYAAQQRRIPGSTEAFPHQHRVLAPAPPVYEAVSETMQSATGIQYSVTPSYQVSAMPQSSGSHGPAIAAVHSSHHHPTAVQPHGGQVVQSHAHPAPPVAPVQGQQQFQRLKVEDALSYLDQVKLQFGSQPQVYNDFLDIMKEFKSQSIDTPGVISRVSQLFKGHPDLIMGFNTFLPPGYKIEVQTNDMVNVTTPGQVHQIPTHGIQPQPQPPPQHPSQPSAQSAPAPAQPAPQPPPAKVSKPSQLQAHTPASQQTPPLPPYASPRSPPVQPHTPVTISLGTAPSLQNNQPVEFNHAINYVNKIKNRFQGQPDIYKAFLEILHTYQKEQRNAKEAGGNYTPALTEQEVYAQVARLFKNQEDLLSEFGQFLPDANSSVLLSKTTAEKVDSVRNDHGGTVKKPQLNNKPQRPSQNGCQIRRHPTGTTPPVKKKPKLLNLKDSSMADASKHGGGTESLFFDKVRKALRSAEAYENFLRCLVIFNQEVISRAELVQLVSPFLGKFPELFNWFKNFLGYKESVHLETYPKERATEGIAMEIDYASCKRLGSSYRALPKSYQQPKCTGRTPLCKEVLNDTWVSFPSWSEDSTFVSSKKTQYEEHIYRCEDERFELDVVLETNLATIRVLEAIQKKLSRLSAEEQAKFRLDNTLGGTSEVIHRKALQRIYADKAADIIDGLRKNPSIAVPIVLKRLKMKEEEWREAQRGFNKVWREQNEKYYLKSLDHQGINFKQNDTKVLRSKSLLNEIESIYDERQEQATEENAGVPVGPHLSLAYEDKQILEDAAALIIHHVKRQTGIQKEDKYKIKQIMHHFIPDLLFAQRGDLSDVEEEEEEEMDVDEATGAVKKHNGVGGSPPKSKLLFSNTAAQKLRGMDEVYNLFYVNNNWYIFMRLHQILCLRLLRICSQAERQIEEENREREWEREVLGIKRDKSDSPAIQLRLKEPMDVDVEDYYPAFLDMVRSLLDGNIDSSQYEDSLREMFTIHAYIAFTMDKLIQSIVRQLQHIVSDEICVQVTDLYLAENNNGATGGQLNTQNSRSLLESTYQRKAEQLMSDENCFKLMFIQSQGQVQLTIELLDTEEENSDDPVEAERWSDYVERYMNSDTTSPELREHLAQKPVFLPRNLRRIRKCQRGREQQEKEGKEGNSKKTMENVDSLDKLECRFKLNSYKMVYVIKSEDYMYRRTALLRAHQSHERVSKRLHQRFQAWVDKWTKEHVPREMAAETSKWLMGEGLEGLVPCTTTCDTETLHFVSINKYRVKYGTVFKAP

Variants of: B1
Experiment: co-immunoprecipitation (IP: HA) with densitometry quantification; HA-tagged RUNX1T1 and FLAG-tagged interactor co-expressed in HEK-293 cells; parent: 1; read off a plot

Variant | ratio to parent
chain 1 E146K | ~1.6
chain 1 E163K | ~1.6

Variants of: B2
Experiment: as above

Variant | ratio to parent
chain 1 E146K | ~2.6
chain 1 E163K | ~0.57

Reference: PMC11589140 (2024)
